Data set [1] deals with the molecule itself. The experiment in a line: not stated; 6xHis-tagged Prx reduced with DTT, in purification buffer and in coupling buffer; method not given.
In a further data set the target is T1, recombinant PfSAHH wt (P. falciparum, UniProt P50250 1-479).
T1 construct: S-adenosyl-L-homocysteine hydrolase, Plasmodium falciparum, wild type; not pre-reduced in the assay; also called S-adenosyl-L-homocysteine hydrolase; source: recombinant, purified (produced as previously described)
T1 sequence (P50250 whole entry): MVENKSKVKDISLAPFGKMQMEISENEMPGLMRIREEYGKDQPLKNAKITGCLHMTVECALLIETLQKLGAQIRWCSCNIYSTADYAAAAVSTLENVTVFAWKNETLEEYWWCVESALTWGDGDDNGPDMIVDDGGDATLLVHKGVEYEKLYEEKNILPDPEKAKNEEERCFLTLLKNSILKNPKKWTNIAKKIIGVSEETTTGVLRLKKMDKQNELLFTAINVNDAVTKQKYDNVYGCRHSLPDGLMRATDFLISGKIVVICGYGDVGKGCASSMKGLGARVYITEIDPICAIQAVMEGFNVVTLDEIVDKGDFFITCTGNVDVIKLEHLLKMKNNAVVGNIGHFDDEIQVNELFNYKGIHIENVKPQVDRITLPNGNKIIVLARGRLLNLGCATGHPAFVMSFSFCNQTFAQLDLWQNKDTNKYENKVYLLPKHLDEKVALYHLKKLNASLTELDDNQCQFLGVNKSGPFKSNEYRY
The experiment in a line: pull-down; 2 mg reduced PfPrx1a wt on CNBr-activated Sepharose 4B; 8 mg purified recombinant PfLDH wt or PfSAHH wt (not pre-reduced); extensive washing; eluted with 10 mM DTT; silver-stained 12% SDS-PAGE. To be noted: both partners purified.

B1: PfPrx1a wild type (enzyme, P. falciparum, UniProt Q8IL80 1-195, looked up)
chain: MASYVGREAPYFKAEAVFADNTFGEVNLHDFIGKKYVLLYFYPLDFTFVCPSEIIALDKALDAFKERNVELIGCSVDSKYTHLAWKKTPLTKGGIGNIQHTLISDITKSISRSYNVLFGDSVSLRAFVLIDKQGVVQHLLVNNLAIGRSVEEVLRIIDAVQHHEQHGDVCPANWKKGKVAMKPSEEGVSEYLSKL
notes: PfPrx1a (thioredoxin peroxidase 1), Plasmodium falciparum; peroxidatic C50, resolving C170, further C74; also called PfPrx1a wt; thioredoxin peroxidase 1; source: E. coli M15 (pQE30), purified (Ni-NTA); not shown: His6, N-terminal, kept; copies: 10
With B1, the stoichiometry N (in general, the number of molecules, sites or subunits per partner or assembly) in data set [1] came out at 10. In the data set with recombinant PfSAHH wt, the binding result is “binds”.

B2: PfPrx1m wild type (enzyme, P. falciparum)
chain: SLVTKKAYNFTAQGLNKNNEIINVDLSSFIGQKYCCLLFYPLNYTFVCPTEIIEFNKHIKDFENKNVELLGISVDSVYSHLAWKNMPIEKGGIGNVEFTLVSDINKDISKNYNVLYDNSFALRGLFIIDKNGCVRHQTVNDLPIGRNVQEVLRTIDSIIHVDTSGEVCPINWKKGQKAFKPTTESLIDYMNNANKNV
notes: PfPrx1m (thioredoxin peroxidase 2), Plasmodium falciparum, mitochondrial; peroxidatic C67, resolving C187, further C54, C55, C152; also called PfPrx1m wt; thioredoxin peroxidase 2; source: E. coli M15 (pQE30), purified (Ni-NTA); not shown: His6, N-terminal, kept; copies: 10
For the molecule B2, in data set [1], the “stoichiometry N” value came to 10.
